The source of these data is patent US20240043504A1 (published 2024).

The target of the experiment is SARS-CoV-2 RBD-hFc (SARS-CoV-2). The experiment in a line: Luminex beads.

B1: mAb10984 (antibody, V domains shown)
VH: EVQLVESGGGLVQPGGSLRLSCAASGLTVNRNYMSWVRQAPGKGLEWVSLIYSGGSTYYADSVKGRFTISRDNSKNTLYLQMNSLRLEDTAVYYCARGELGIPYGMDVWGQGTTVTVSS
VL: QSVLTQPPSVSAAPGQKVTISCSGSSSNIGNNYVSWYQQLPGTAPKLLIYDNNKRPSGIPDRFSGSKSGTSATLGITGLQTGDEADYYCGTWDSSLSAGVFGGGTKLTVLG
For B1, the binding result was “binds”.

B2: mAb10966 (antibody, V domains shown)
VH: EVQLVESGGGLVQPGGSLRLSCAASGLTVSSNYMSWVRQAPGKGLEWVSVIYSGGSTFYADSVKGRFTISRDNSKNTLYLQMNSLRPEDTAVYYCAREGRIAATGYGMDVWGQGTTVTVSS
VL: not shown
In the case of B2, the binding result is “binds”.

B3: mAb10934 (antibody, V domains shown)
VH: not shown
VL: DIQMTQSPSSLSASVGDRVTITCQASQDIWNYINWYQQKPGKAPKLLIYDASNLKTGVPSRFSGSGSGTDFTFTISSLQPEDIATYYCQQHDDLPPTFGQGTKVEIKR
For B3, the binding result was “binds”.

B4: mAb10954 (antibody, V domains shown)
VH: EVQLVESGGGLVQPGGSLRLSCAASGITVSSNYMSWVRQAPGKGLEWVSLIYSGGSTYYADSVKGRFTISRDNSKNTLYLQMNSLRVEDTAVYYCARDHGMAAAGYNYWGQGTLVTVSS
VL: DIQMTQSPSSLSASVGDRVTITCQASQDINKYLNWYQQKPGKAPKLLIYDASNLETGVPSRFSGSGSGTDFTFTINSLQPEDFATYFCQQYDNLPPAFGQGTKVEIKR
For B4, the binding result is “binds”.

B5: mAb10935 (antibody, V domains shown)
VH: EVQLVESGGGLVQPGGSLRLSCAASGFTVSSNYMSWVRQAPGKGLEWVSLIYSGGSTYYADSVKGRFTISRHNSKNTLYLQMNSLRSEDTAVYYCARVPLGDYYYGMDVWGQGTTVTVSS
VL: DIQMTQSPSSLSASVGDRVTITCQASQDINKYLNWYQQKPGKAPKLLIYDASNLETGVPSRFSGSGSGTDFTFTISSLQPEDIATYYCQQSDNLPLTFGGGTKVEIKR
As to B5, the binding result is “binds”.

B6: mAb10938 (antibody, V domains shown)
VH: EVQLVESGGGLVQPGGSLRLSCAVSGFTVSSNYMSWVRQAPGKGLEWVSLIYSGGSTFYADSVKGRFTISRHNSKNTLYLQMNSLRAEDTAVYYCAREGGYSYDYNYWGQGTLVTVSS
VL: DIQMTQSPSSLSASVGDRVTITCQASQDIRNYLNWYQQKPGKAPKLLIYDASNLETGVPSRFSGIGSGTDFTFTISSLQPEDIATYYCQQYDNLPITFGQGTRLEIKR
In the case of B6, the binding result is given as “binds”.

B7: mAb10967 (antibody, V domains shown)
VH: EVQLVESGGGLVQPGGSLRLSCAASGFTVSSNYMSWVRQAPGKGLEWVSVIYPGGSTFYADSVKGRFTISRDNSKNTLYLQMNSLRAEDTAVYYCARDQRDFAWGQGTLVTVSS
VL: DIQMTQSPSSLSASVGDRVTITCQASQDISNYLNWYQQKPGKAPKLLIYDASNLETGVPSRFSGSGSGTDFTFTISGLQPEDIATYYCQQYDNLPPTFGQGTRLEIKR
B7: the binding result is “binds”.

B8: mAb10982 (antibody, V domains shown)
VH: EVQLVESGGGLVQPGGSLRLSCAASGLTVSSNYMSWVRQAPGKGLEWVSVIYSGGTTYYADSVKGRFTISRHNSKNTLSLQMNSLRAEDTAVYYCARGEGANYYGMDVWGQGTTVTVSS
VL: QSVLTQPPSVSGAPGQRVTISCTGSSSNIGTGYDVHWYQQLPGTAPKLLIYGNSNRPSGVPDRFSGSKSGTSASLAITGLQAEDEADYYCQSYDSSLSGYVVFGGGTKLTVLG
Consider B8, for which the binding result is “binds”.

B9: mAb10986 (antibody, V domains shown)
VH: EVQLVESGGGLVQPGGSLRLSCAASEFTVSSNYMSWVRQAPGKGLEWVSVIYSGGSTFYADSVKGRFTISRDNSKNTLYLQMNSLRAEDTAVYYCARALPYGDLHFDYWGQGTLVTVSS
VL: QSVLTQPPSVSGAPGQRVTISCTGSSSNIGTGYDVHWYQQLPGTAPKLLIYGNTNRPSGVPDRFSGSKSGTSASLAITGLQAEDEADYYCQSYDSSLSDSYVFGTGTKVTVLG
Take B9: the binding result is “binds”.

B10: mAb10985 (antibody, V domains shown)
VH: EVQLVESGGGLVQPGRSLRLSCAASGFTFDDYAMHWVRQAPGKGLEWVSGISWNRGSIGYADSVKGRFTISRDNAKNSLYLQMSSLRAEDTALYYCAKDGERWDSVVVPSARNGMDVWGQGTTVTVSS
VL: QSVLTQPPSVSGAPGQRVTISCTGSSSNIGAGYDVHWYQQLPGTAPKLLIYGNSNRPSGVPDRFSGSKSGTSASLAITGLQAEDEADYYCQSYDSSLSGSYVFGTGTKVTVLG
Turning to B10, the binding result is reported as “binds”.

B11: mAb10920 (antibody, V domains shown)
VH: QVQLVESGGGVVQPGRSLRLSCAASGFTFSYYGMHWVRQAPGKGLEWVAVIWYDGSNKFYADSVKGRFTISRDNSKNTLYLQMNSLRAEDTAVYYCAAARPGYYYGMDVWGQGTTVTVSS
VL: DIQMTQSPSSLSASVGDRVTITCRASQGISNYLAWFQQKPGKAPNSLIYAASSLQRGVPSKFSGSGSGTDFTLTISSLQPEDFATYYCQQYNSYPRTFGQGTKVEIKR
For the molecule B11, the binding result is recorded as “binds”.

B12: mAb10921 (antibody, V domains shown)
VH: EVQLVESGGGLVQPGGSLRLSCAASGITVSSNYMSWVRQAPGKGLEWVSVIYSGGSTFYADSVKGRFTISRHNSKNTLYLQMNSLRAEDTAVYYCARERNFDAFDIWGQGTMVTVSS
VL: DIQMTQSPSSVSASVGDRVTITCRASQGISSWLAWYQQKPGKAPKLLIYAASSLQSGVPSRFSGSGSGTDFTLTISSLQPEDFATYYCQQANSFPLFTFGPGTKVDIKR
For B12, the binding result is listed as “binds”.

B13: mAb10989 (antibody, V domains shown)
VH: QVQLVQSGAEVKKPGASVKVSCKASGYIFTGYYMHWVRQAPGQGLEWMGWINPNSGGANYAQKFQGRVTLTRDTSITTVYMELSRLRFDDTAVYYCARGSRYDWNQNNWFDPWGQGTLVTVSS
VL: QSALTQPASVSGSPGQSITISCTGTSSDVGTYNYVSWYQQHPGKAPKLMIFDVSNRPSGVSDRFSGSKSGNTASLTISGLQAEDEADYYCSSFTTSSTVVFGGGTKLTVLG
As for B13, the binding result is on record as “binds”.

B14: mAb10936 (antibody, V domains shown)
VH: QVQLVESGGGVVQPGRSLRLSCAASGFTFRNYGMHWVRQAPGKGLEWVSVIWYDGSNRYYADSVKGRFTISRDTSKNTLYLQMNSLRAEDTAVYYCARDPPITGTTGGDAFDIWGQGTMVTVSS
VL: not shown
On to B14, for which the binding result is reported as “binds”.

B15: mAb10930 (antibody, V domains shown)
VH: EVQLVESGGGLVQPGRSLRLSCAASGFTFDDYAMYWVRQAPGKGLEWVSGISWNSGSIGYADSVKGRFTISRDNAKNSLYLQMNSLRAADTALYYCAKDKDWNSRGYYYYGMDVWGQGTTVTVSS
VL: not shown
With B15, the binding result was “binds”.

B16: mAb10964 (antibody, V domains shown)
VH: QVQLQESGPGLVKPSETLSLTCTVSGGSINNYYWIWIRQPPGKGLEWIGYIYHSGSTNYNPSLKSRVTISVDTSKNQFSLKVSSVTAADTAVYYCANMVRGVYEDDYWGQGTLVTVSS
VL: DIQMTQSPSSLSASVGDRVTITCRASQSISNYLNWYQQKPGKAPKLLIFAASSLRSGVPSRFSGSGSGTDFTLTISSLHPEDFATYYCQQNYNTPLTFGPGTKVDIKR
With B16, the binding result is on record as “binds”.

B17: mAb10923 (antibody, V domains shown)
VH: QVQLVQSGAEVKKPGASVKVSCKASGYTFINYYIHWVRQAPGQGLEWMGWINPNSGGTNYAQKFQGRVTMTRDTSISTAYMELSRLRSDDTAVYYCAIITIFGVVTWFDPWGQGTLVTVSS
VL: not shown
B17: the binding result is “binds”.

B18: mAb10969 (antibody, V domains shown)
VH: QVQLVESGGGVVQPGRSLRLSCAASGFTFSSYAMHWVRQAPGKGLEWVAVISYDGSNKYYADSVKGRFTISRDNSKNTLYLQMNSLRAEDTAVYYCARDGRTITMVRGVIDDAFDIWGQGTMVTVSS
VL: not shown
In the case of B18, the binding result was “binds”.

B19: mAb10971 (antibody, V domains shown)
VH: EVQLVESGGGLIQPGGSLRLSCAASGVTVSSNYMSWVRQAPGKGLEWVSVIYSGGSTFYSDSVKGRFSISRDNSKNTLYLQMNSLRAEDTAVYYCARDLYYYGMDVWGQGTTVTVSS
VL: DIQLTQSPSFLSASVGDRVTITCRASQGISTYLAWYQQKPGKAPKLLIYAASTLQSGVPSRFSGSGSGTEFTLTISSLQPEDFATYYCQQLDSYPGLTFGGGTKVEIKR
Turning to B19, the binding result was “binds”.

B20: mAb10939 (antibody, V domains shown)
VH: EVQLVESGGGLVQPGGSLRLSCAASGLTVSSNYMNWVRQVPGKGLEWVSVIYSGGSKFYVDSVKGRFTISRHNSKNTLYLQMNSLRPEDTAVYYCTRDAQYYGMDVWGQGTTVTVSS
VL: DIQMTQSPSSLSASVGDRVTITCRASQSISTYLHWYQQKPGEAPKLLIYAASSLQSGVPSRFSGSGSGTDFTLTISSLQPEDFATYYCQQSYSTPPEIFGQGTKLEIKR
Regarding B20, the binding result is “binds”.

B21: mAb10932 (antibody, V domains shown)
VH: EVQLVESGGGLVQSGGSLRLSCAASGLTVSSNYMSWVRQAPGKGLEWVSVIYSGGSTFYSDSVKGRFTISRHNSKNTLYLQMNSLRAEDTAVYYCARARGDAFDIWGQGTMVTVSS
VL: not shown
Consider B21, for which the binding result is recorded as “binds”.

B22: mAb10937 (antibody, V domains shown)
VH: QITLKESGPTLVKPTQTLTLTCTFSGFSLSTNVVGVGWIRQPPGKALEWLALIYWNDDKRYSPSLKSRLTITKDTSKNQVVLTMTNMDPVDTATYYCAHGPTGDYFDYWGQGTLVTVSS
VL: not shown
For B22, the binding result is “binds”.

B23: mAb10915 (antibody, V domains shown)
VH: EVQLVESGGGLVQPGGSLRLSCAASGFTVSSNYMNWVRQAPGKGLEWVSVIYSGGSTFYADSVKGRFTISRHNSKNTLYLQMNSLRPEDTAVYYCARDLGGYFDYWGQGTLVTVSS
VL: not shown
Turning to B23, the binding result is listed as “binds”.

B24: mAb10965 (antibody, V domains shown)
VH: EVQLVESGGGLIQPGGSLRLSCAASVFTVSYNYMSWVRQAPGKGLEWVSVIYSGGSTYYADSVKGRFTISRDNSKNTLYLQMNSLRAEDTAVYYCARALPGWGGSFEYFDYWGQGTLVTVSS
VL: not shown
As for B24, the binding result is recorded as “binds”.
